The values below are quoted from earlier work in publication PMC3039444.

Broadly, the Kd is the constant that tells how readily two partners part at equilibrium.

This data set addresses Ube2g2 (Homo sapiens) (UniProt P60604).
Chain of UniProt P60604 (P60604 2-165): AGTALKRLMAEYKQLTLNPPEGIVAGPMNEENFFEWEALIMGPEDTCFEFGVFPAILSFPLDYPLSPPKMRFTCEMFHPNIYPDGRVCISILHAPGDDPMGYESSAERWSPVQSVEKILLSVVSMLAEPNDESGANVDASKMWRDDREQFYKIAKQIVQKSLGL

Consider gp78 G2BR (from UniProt Q9UKV5), for which the Kd was 21 nM.
